Data from publication PMC5570165.

Test system: p19 N15K,G16R
Experiment: BLI / MSD-SET
Conditions: 2'-OMe at select positions, BLI: citrate-phosphate buffer, 100 mM NaCl, 0.1% BSA, 0.002% Tween-20, 37 C (pH of the siRNA assay not stated), MSD-SET: PBS, 100 pM siRNA, 24 h …

AACGCUGGGCGUUAAUCAATT / UUGAUUAACGCCCAGCGUUTT [Seq 7 siRNA]
binding signal (fold higher affinity than p19 (up to)): 160
